Tests used:
[1] = target: SARS-CoV-2 spike protein (wild type) on pseudovirus (SARS-CoV-2, UniProt P0DTC2 14-1273); assay: cell-based or functional assay
[2] = target: recombinant SARS-CoV-2-RBD (Sino Biological) (SARS-CoV-2, UniProt P0DTC2 319-541)

Binder	IC50, pseudovirus neutralisation (CHO-ACE2 cells, luciferase) [1] [ng/mL]	Kd [2] [nM]
WCoVA7 (antibody, V domains shown) VH: EVKLLESGGGLVQPGGSLKLSCAASGFDFSRYWMSWVRQAPGKGLEWIGEINPDSSTINYTPSLKDKFIISRDNAKNTLYLQMSKVRSEDTALYYCARIYYGSPGAMDYWGQGTSVTVSS VL: SIVMTQTPKFLLVSAGDRVTITCKASQSVSNDVAWYQQKPGQSPKLLIYYASNRYTGVPDRFTGSGYGTDFTFTISTVQAEDLAVYFCQQDYFSPYTFGGGTKLEIK	2.6	–
WCoVA9 (antibody, V domains shown) VH: EVQLQQSGAELVKPGASVKLSCTASGFNIKDTYMHWVKQRPEQGLEWIGRIDPANGNTKYDPKFQAKATITANTSSNTAYLHLSSLTSEDTAVYYCAPYYDYVGAMDYWGQGTSVTVSS VL: DIQMTQSPASQSASLGESVTITCLASQTIGTWLAWYQQKPGKSPQLLIYAATSLADGVPSRFSGSGSGTKFSFKISSLQAEDFVSYYCQQLYNTPLTFGGGTKLEIK	4.9	< 1

From patent CN116744966A (WISTAR INST; WEINER DAVID; MUTHUMANI KARTHIK; PARZACCHI …, dated 2023)
